In PMC4692362 one finds Kd data, which are given here for one substance.

The assay has as its target FLAG-Nrxn1β(−SS4) (UniProt Q63373). As to the kind of experiment: cell surface binding with Scatchard analysis.

A word on the Kd: it is the equilibrium constant for the complex coming apart. A low value points to a tighter complex. Substance “SorCS1-ecto-His (from UniProt Q9JLC4 34-1098) (domain or fragment)” returned a dissociation constant Kd of 2.22 nM.
